Laboratory results taken from US20060171884A1 (Amgen, published 2006).

T1: Matriptase (soluble enzyme, form not stated) (human, UniProt Q9Y5Y6 615-855, limits assumed)
T1 construct: also called Matriptase-1; MT-SP1
T1 sequence: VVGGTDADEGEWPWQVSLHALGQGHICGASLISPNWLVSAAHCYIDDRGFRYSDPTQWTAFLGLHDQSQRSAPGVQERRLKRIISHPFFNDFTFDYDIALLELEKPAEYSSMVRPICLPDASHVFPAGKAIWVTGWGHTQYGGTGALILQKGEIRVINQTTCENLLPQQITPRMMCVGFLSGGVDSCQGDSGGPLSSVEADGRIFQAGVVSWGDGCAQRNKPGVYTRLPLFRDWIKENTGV


Assays:
[1] = target: Rhesus Macaque MTSP-1 on 4MBr5 cells (rhesus macaque) (UniProt H9ZCT3); test: FACS on 4MBr5 monkey lung epithelial cells, antibody at 1 µg/ml
[2] = target: native human Matriptase on cells (human) (UniProt Q9Y5Y6); test: FACS on 22Rv1 cells, antibody at 1 µg/ml
[3] = target: T1, Matriptase (soluble enzyme, form not …); test: competition ELISA: 125 ng/ml biotinylated MTSP1 pre-incubated 1 hour with titrated HAI-1, then transferred to a sc95/96 coated plate, bound MTSP detected with SA-pod; competitor: plate-coated sc95/96

Row | geomean (geomean fluorescence) [1] | geomean (geomean fluorescence) [2] | IC50 (read off the curve) [3] | Molecule
1 | 5 | 5 |  | IgG1 irrelevant control antibody
2 |  |  | ~40 nM | HAI-1 (soluble, as titrated in the competition assay) (other, UniProt O43278 36-465, looked up) GPPPAPPGLPAGADCLNSFTAGVPGFVLDTNASVSNGATFLESPTVRRGWDCVRACCTTQNCNLALVELQPDRGEDAIAACFLINCLYEQNFVCKFAPREGFINYLTREVYRSYRQLRTQGFGGSGIPKAWAGIDLKVQPQEPLVLKDVENTDWRLLRGDTDVRVERKDPNQVELWGLKEGTYLFQLTVTSSDHPEDTANVTVTVLSTKQTEDYCLASNKVGRCRGSFPRWYYDPTEQICKSFVYGGCLGNKNNYLREEECILACRGVQGGPLRGSSGAQATFPQGPSMERRHPVCSGTCQPTQFRCSNGCCIDSFLECDDTPNCPDASDEAACEKYTSGFDELQRIHFPSDKGHCVDLPDTGLCKESIPRWYYNPFSEHCARFTYGGCYGNKNNFEEEQQCLESCRGISKKDVFGLRREIPIPSTGSVE
